The values that follow are results of earlier work, collected in paper PMC3196573.

pKd: −log10 of the molar value.

As a reminder, the pKd is −log10 of the Kd, conventionally taken in molar units.

In one data set the target is ALK6 (Homo sapiens) (UniProt O00238).
The next data set addresses ALK3 (Homo sapiens) (UniProt P36894).
UniProt P36894, sequence (P36894 24-152): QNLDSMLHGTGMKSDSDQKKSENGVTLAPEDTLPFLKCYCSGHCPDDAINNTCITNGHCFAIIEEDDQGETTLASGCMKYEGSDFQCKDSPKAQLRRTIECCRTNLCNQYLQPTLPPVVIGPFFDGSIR

UniProt O00238, sequence (O00238 14-126): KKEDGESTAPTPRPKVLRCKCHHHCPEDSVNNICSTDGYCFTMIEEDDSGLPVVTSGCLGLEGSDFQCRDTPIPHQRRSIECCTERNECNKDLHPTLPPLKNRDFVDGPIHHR

On to BMP2 (from UniProt P12643), for which the results for the pKd with ALK6 (Homo sapiens) and in the data set with ALK3 (Homo sapiens) were 8.44 and 9.05, respectively.
